From patent US20240269194A1, “COMPOSITIONS AND METHODS FOR ISLET CELL TRANSPLANTS” (City of Hope, priority 2021, published 2024) come the findings set out here.

This test addresses T1, gastrin receptor CCKBR on human islets (human) (UniProt P32239).
T1 sequence (looked up): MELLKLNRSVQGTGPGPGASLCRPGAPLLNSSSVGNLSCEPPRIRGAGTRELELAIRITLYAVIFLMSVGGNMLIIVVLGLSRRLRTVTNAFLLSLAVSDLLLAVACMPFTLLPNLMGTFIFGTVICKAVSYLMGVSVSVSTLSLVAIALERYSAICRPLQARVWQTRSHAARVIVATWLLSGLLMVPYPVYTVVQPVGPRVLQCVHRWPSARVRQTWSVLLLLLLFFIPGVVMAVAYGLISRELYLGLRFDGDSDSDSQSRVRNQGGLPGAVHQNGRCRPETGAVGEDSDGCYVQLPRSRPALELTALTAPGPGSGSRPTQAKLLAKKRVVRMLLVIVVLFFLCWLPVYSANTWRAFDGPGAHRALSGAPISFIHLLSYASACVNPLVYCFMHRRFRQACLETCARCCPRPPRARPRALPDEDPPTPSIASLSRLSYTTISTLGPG
Kind of test: cell-based or functional assay.

Regarding “gastrin analogue [Leu^15] Gastrin-17 (GAST-17) (peptide)”, the glucagon mRNA (qPCR) in human islets from donors with high HbA1c, 100 nM gastrin came out at 1.8 fold; the insulin mRNA (qPCR) in human islets from donors with high HbA1c, 100 nM gastrin is > 2 fold; the somatostatin mRNA (qPCR) in human islets from donors with high HbA1c, 100 nM gastrin is 2.5 fold.
